Laboratory results reported in the supplement of paper PMC10567573.

B1: DYRK1B (parent)
chain: KKVLNHGYDDDNHDYIVRSGERWL

Variants of: B1
Experiment: protein stability index of a GFP-peptide fusion (GPS, HEK-293T) (PSI 1-6); higher = more stable
Conditions: c terminus: a fixed tail appended
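Note: lentivirally expressed fusions sorted by FACS into six bins by GFP to DsRed ratio, PSI derived from sequencing read proportions per bin multiplied by bin number.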

Protein stability index: each site, then its substitutions
N5: M 2.8, G 3.42, L 3.01, P 3.39, I 2.82, T 2.57, K 2.97, W 2.72, R 2.92, Q 3.01, A 2.88, E 3.46, H 2.89, V 3.22, C 2.84, Y 2.33, S 2.67, F 2.7, D 3.41
D9: W 1.53, Y 2.17, T 2.75, E 3.96, Q 2.94, N 2.63, M 2.83, G 2.51, C 2.96, F 2.61, R 2.74, I 2.52, P 3.12, H 2.74, V 2.67, L 2.39, S 2.34, K 2.87, A 2.89
V17: Y 2.94, P 3.86, G 3.36, H 3.46, S 3.36, L 3.07, R 3.53, N 3.65, Q 3.57, A 3.11, C 2.6, M 2.98, D 3.56, E 4.03, T 2.97, W 2.56, F 2.74, K 3.4, I 2.55
V3: W 2.05, M 3.04, R 2.83, F 2.61, T 3, S 3.47, G 3.33, P 2.94, Y 2.73, Q 3.08, K 3.08, C 2.41, D 3.74, L 2.88, A 3.45, H 3.12, I 2.73, N 3.15, E 3.48
I16: W 2.71, Q 3.58, E 4.17, Y 3.89, T 3.47, H 3.23, S 3.68, D 3.84, F 3.09, A 3.73, R 3.49, P 3.55, L 3.09, M 3.32, C 3.48, N 3.24, G 3.71, V 3.86, K 3.49
K2: G 3.6, T 3.53, H 3.19, M 2.86, W 2.12, L 2.12, C 1.9, R 3.13, D 4.31, I 2.23, F 2.52, S 2.97, A 3.33, E 3.7, P 3.46, N 3.79, V 2.86, Y 2.52, Q 3.32
D14: G 2.71, L 1.67, K 3, W 1.85, E 3.03, T 2.79, F 2.21, M 2.58, R 2.86, Q 2.35, H 3.03, N 3.12, Y 2.55, P 2.71, S 2.82, A 2.78, C 2.64, I 2.37, V 2.13
G7: S 3.21, L 2.24, T 3.53, P 3.15, C 2.27, R 3.31, A 3.47, Q 3.12, K 3.3, M 3.07, E 3.64, N 3.23, Y 2.93, W 2.74, V 2.77, H 2.84, I 2.22, F 2.4, D 3.4
Y8: K 3.58, D 3.87, C 3.24, I 3.27, Q 3.77, F 3.46, N 4.15, P 3.24, A 3.82, L 3.36, R 4.28, W 2.74, T 3.74, V 3.58, E 3.71, G 3.56, S 3.66, M 3.48, H 4.27
D11: V 2.54, N 2.89, I 2.5, F 2.15, R 2.37, E 3.18, P 2.58, A 3.09, S 3.03, Q 2.83, L 2.25, T 2.75, C 2.55, K 2.92, G 2.85, W 2.02, M 2.59, Y 2.48, H 3.08
D10: V 2.44, G 3.46, W 2.04, I 2.3, Q 2.99, M 2.96, N 2.48, E 2.95, F 1.83, K 3.16, Y 3.06, A 3.02, S 2.72, T 3, R 2.82, H 2.75, P 2.81, L 2.43, C 2.52
L4: V 2.58, C 3.33, G 3.87, W 3.1, N 3.76, M 2.88, R 3.38, Y 2.99, E 3.56, Q 4.12, S 3.27, H 3.27, T 3.86, I 3.33, F 2.59, K 3.68, A 3.68, D 4.28, P 3.36
Y15: A 3.79, M 3.27, C 3.58, V 3.38, N 3.88, H 3.42, I 3.5, E 4.02, D 4.19, S 3.32, G 3.82, R 3.72, Q 4.05, W 3.07, K 3.56, L 3.05, F 3.09, T 2.95, P 3.6
K1: P 3.43, V 2.29, I 2.28, N 2.95, M 3.09, T 2.92, Y 2.38, W 2.07, Q 2.74, R 2.43, S 3.23, L 2.48
H13: M 2.58, W 2.44, A 3.06, N 3.07, T 3.35, Y 2.64, V 2.96, E 4.24, F 1.95, G 3.27, K 3.59, C 2.54, R 3.77, P 3.57, S 3.42, D 3.73, Q 3.68, I 2.79, L 2.59
R18: L 2.39, K 3.74, P 3.24, G 3.45, H 3.4, W 2.38, S 3.1, F 2.39, C 2.82, Q 3.78, I 2.62, M 2.39, A 3, E 3.75, D 3.78, N 2.9, T 2.92, V 2.67
N12: M 2.29, W 2.01, H 2.65, A 2.7, Y 2.17, D 3.4, K 3.05, F 2.35, T 2.62, V 2.64, I 2.47, L 2.3, P 2.78, G 2.81, E 3.36, R 3.27, Q 3.48, C 2.67, S 3.01
H6: Q 3.32, A 2.81, E 3.44, L 2.51, W 2.01, S 3.22, V 2.84, R 2.91, N 3.38, C 2.38, I 3.01, P 3.27, G 3.26, Y 3.12, K 3.52, T 3.12, D 3.48, F 2.4, M 2.34
